The values that follow come from PMC5910394, “Mechanically interlocked functionalization of monoclonal antibodies” (Nature Communications, 2018).

Broadly, the Kd is the concentration at which binding is half-saturated. The low end stands for higher affinity, the high end for lower affinity. Usually half-life stands for how long it takes for the measured level to halve. The koff is the rate constant with which the complex falls apart. What is called kon is the second-order rate constant of association.

The target in assay [1] is Ile83Glu anti-HER2 memAb. In words: SPR; memAb variant amine-coupled to a CM5 chip, peptide flowed over at 30 uL/min, HBS-EP+, 37 °C, Biacore T100, 1:1 binding model.
Sequence of Ile83Glu anti-HER2 memAb (heavy, as listed by the source, chain 1 of 2): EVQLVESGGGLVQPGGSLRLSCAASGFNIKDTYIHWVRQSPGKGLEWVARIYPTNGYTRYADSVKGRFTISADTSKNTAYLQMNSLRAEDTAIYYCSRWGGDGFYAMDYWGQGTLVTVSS
Sequence of Ile83Glu anti-HER2 memAb (light, as listed by the source, chain 2 of 2): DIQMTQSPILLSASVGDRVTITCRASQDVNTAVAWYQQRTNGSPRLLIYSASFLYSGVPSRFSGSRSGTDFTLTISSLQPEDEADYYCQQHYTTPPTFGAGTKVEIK
For assay [2], the target named is memAb anti-HER2 (meditope-enabled, trastuzumab-based anti-HER2 antibody). Kind of assay: SPR; memAb anti-HER2 amine-coupled on a CM5 chip, meditope flowed over at 30 uL/min, HBS-EP+, 25 °C, 1:1 model, global fit, n=1 (authors estimate the error at 10-50%).
Sequence of memAb anti-HER2 (meditope-enabled, trastuzumab-based anti-HER2 antibody) (heavy, as listed by the source, chain 1 of 2): as the sequence (heavy, as listed by the source, chain 1 of 2) above
Sequence of memAb anti-HER2 (meditope-enabled, trastuzumab-based anti-HER2 antibody) (light, as listed by the source, chain 2 of 2): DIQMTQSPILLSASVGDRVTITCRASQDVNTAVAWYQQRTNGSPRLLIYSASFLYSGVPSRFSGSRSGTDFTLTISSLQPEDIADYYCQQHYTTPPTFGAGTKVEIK
The target of assay [3] is long meditope ((Ac)…). In words: SPR. Conditions: 37 °C (red point beside label LE); n = 1; parent: est. 5.3; read off a plot.
Assay [4] has as its target anti-HER2 memAb (trastuzumab-based, meditope-enabled anti-HER2 antibody). Kind of assay: SPR; memAb variant amine-coupled to a CM5 chip, peptide flowed over at 30 uL/min, HBS-EP+, 25 °C, Biacore T100, 1:1 binding model.

Sequence of anti-HER2 memAb (trastuzumab-based, meditope-enabled anti-HER2 antibody) (heavy, as listed by the source, chain 1 of 2): as the sequence (heavy, as listed by the source, chain 1 of 2) above

In assay [1], “5-diphenylalanine-8-Arg-(PEG)2-azido-meditope ((Ac)CQFDA(Ph)2STRXLRCGGSK, X = arginine-(PEG)2-azide) (peptide)” had a dissociation constant (Kd) of 2.1 nM and a half-life of 1.38 h.

As for CQFDA(Ph)2STRRLKC meditope (peptide), in assay [2], the koff was 0.008 s⁻¹ and the kon was 200000 M⁻¹ s⁻¹.

For the substance “anti-HER2 memAb (trastuzumab-based, meditope-enabled anti-HER2 antibody) LC:Ile83Glu”, the kon (log10(M-1 s-1)) in assay [3] stood at 5.6.

The substance “meditope with Leu5 substituted by L-diphenylalanine (peptide)” had a dissociation constant (Kd) in assay [4] of 40 nM.
